Positions count from the first letter of the chain named.
T1: human IL-13Rα1 on normal human dermal fibroblast (NHDF) cells (human, UniProt P78552 27-427)
T1 sequence: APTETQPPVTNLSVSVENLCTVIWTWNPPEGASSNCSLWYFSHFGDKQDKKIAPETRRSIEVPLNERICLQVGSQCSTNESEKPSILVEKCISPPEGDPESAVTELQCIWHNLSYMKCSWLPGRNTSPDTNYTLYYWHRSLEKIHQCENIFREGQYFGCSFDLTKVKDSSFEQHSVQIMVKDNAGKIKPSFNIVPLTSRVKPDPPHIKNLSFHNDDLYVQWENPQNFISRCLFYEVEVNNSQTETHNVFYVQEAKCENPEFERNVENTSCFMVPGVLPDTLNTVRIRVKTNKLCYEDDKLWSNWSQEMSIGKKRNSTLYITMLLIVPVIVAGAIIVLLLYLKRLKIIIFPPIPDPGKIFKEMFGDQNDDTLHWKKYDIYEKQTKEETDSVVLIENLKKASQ

T2: IL-13Rα1 on whole blood cells or PBMCs (TARC release assay)
T2 sequence (P78552 whole entry, species assumed, looked up): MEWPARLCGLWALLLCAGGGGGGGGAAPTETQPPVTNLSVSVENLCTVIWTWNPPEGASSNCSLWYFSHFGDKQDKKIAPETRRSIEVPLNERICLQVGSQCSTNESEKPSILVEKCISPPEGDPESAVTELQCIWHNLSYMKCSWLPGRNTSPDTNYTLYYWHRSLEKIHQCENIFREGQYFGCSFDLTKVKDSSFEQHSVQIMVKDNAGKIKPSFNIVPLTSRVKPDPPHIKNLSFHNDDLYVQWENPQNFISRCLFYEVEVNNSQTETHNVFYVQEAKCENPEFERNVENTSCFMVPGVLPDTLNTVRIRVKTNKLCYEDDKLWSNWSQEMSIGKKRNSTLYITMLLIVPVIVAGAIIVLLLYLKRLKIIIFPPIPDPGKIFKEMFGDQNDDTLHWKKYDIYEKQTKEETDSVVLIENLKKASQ

T3: hIL-13Rα1.ECR (N-terminal FLAG-tagged fusion protein of the extracellular region of human IL-13Rα1) (human, UniProt P78552 29-343)
T3 construct: also called human IL-13Rα1.ECR; hIL-13Rα1 extracellular domain
T3 sequence: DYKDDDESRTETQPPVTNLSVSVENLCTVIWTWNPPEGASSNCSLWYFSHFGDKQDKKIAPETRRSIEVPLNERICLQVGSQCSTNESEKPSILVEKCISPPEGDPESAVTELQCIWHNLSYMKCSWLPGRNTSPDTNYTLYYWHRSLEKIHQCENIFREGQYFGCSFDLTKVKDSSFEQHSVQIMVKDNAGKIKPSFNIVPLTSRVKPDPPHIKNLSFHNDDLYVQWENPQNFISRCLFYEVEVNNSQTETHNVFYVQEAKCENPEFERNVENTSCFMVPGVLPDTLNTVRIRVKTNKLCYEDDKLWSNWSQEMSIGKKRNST

B1: 8B4-IgG4 (antibody, V domains shown)
VH: EVQVLESGGGLVQPGGSLRLSCAASGFTFSNYAMTWVRQAPGKGLEWVSTISGRGYSIYYADSVKGRFTISRDNSKNTVYLQMNSLRAEDTAVYYCAKEEGHWYFDVWGRGTLVTVSS
VL: EIVLTQSPDFQSVTPKEKVTITCRASQSIGSSLHWYQQKPDQSPKLLIKYASQSFSGVPSRFSGSGSGTDFTLTINSLEAEDAAAYYCHQSSSLPYTFGQGTKLEIK
notes: Recombinant full-length antibody of subclass IgG4 with kappa light chain (Lonza pCONGAMMA4/pCONKAPPA vectors), made in 293 cells
B2: 8B4-21C (eotaxin assay) (antibody, V domains shown)
VH: B1 VH
VL: B1 VL with H89K, Q90S, S92A, S93G
B3: 8B4-78M (optimized antibody, eotaxin assay) (antibody, V domains shown)
VH: B1 VH
VL: B1 VL with H89M, Q90S, S92M, S93G
B4: 8B4 (antibody, V domains shown)
VH: B1 VH
VL: B1 VL
notes: Human monoclonal antibody purified from a hybridoma of HuMAb transgenic mice; also called PTA-6934
B5: 8B4-82 (eotaxin assay) (antibody, V domains shown)
VH: B1 VH
VL: B1 VL with H89A, Q90S, S92R, S93G
B6: 8B4-74C (eotaxin assay) (antibody, V domains shown)
VH: B1 VH
VL: B1 VL with H89M, Q90S, S92L, S93G
B7: 8B4-36 (eotaxin assay) (antibody, V domains shown)
VH: B1 VH
VL: B1 VL with H89V, Q90S, S92W, S93G
B8: 6C11 (antibody, V domains shown)
VH: B1 VH with S30N, M34L, Y104F
VL: B1 VL
notes: Human monoclonal antibody purified from a hybridoma of HuMAb transgenic mice; also called PTA-6930
B9: 2B6 (antibody, V domains shown)
VH: QVQLVESGGGVVQPGRSLRLSCAASGFTFSYYGMHWVRQAPGKGLEWVAFIWYDGSNKYYEDSVKGRFTISRDNSKNTLYLQMNSLRAEDTAVYYCARVAAAGAVEYFQHWGQGTLVTVSS
VL: AIQLTQSPSSLSASVGDRVTITCRASQVISSVLAWYQQKSGKGPKLLIYDASSLESGVPSRFSGSGSGTDFTLTISSLQPEDFATYYCQQFNSYPLTFGGGTKVEIK
notes: Human monoclonal antibody purified from a hybridoma of HuMAb transgenic mice; also called PTA-6932; 2136
B10: 8B4-18C-IgG4 (antibody, V domains shown)
VH: B1 VH
VL: B1 VL with H89M, Q90N, S92L, S93G
notes: Full-length IgG4, kappa
B11: 8B4-78M-IgG4 (antibody, V domains shown)
VH: B1 VH
VL: B1 VL with H89M, Q90S, S92M, S93G
notes: Full-length IgG4, kappa
B12: 8B4 (Fab) (Fab, V domains shown)
VH: B1 VH
VL: B1 VL
notes: Fab format from vector pFab3d
B13: 8B4-18C (Fab) (Fab, V domains shown)
VH: B1 VH
VL: B1 VL with H89M, Q90N, S92L, S93G
notes: Fab format; only CDR3s were mutated
B14: 8B4-80C (Fab) (Fab, V domains shown)
VH: B1 VH
VL: B1 VL with H89M, Q90S, S92W, S93G
notes: as for B13
B15: 8B4-36 (Fab) (Fab, V domains shown)
VH: B1 VH
VL: B1 VL with H89V, Q90S, S92W, S93G
notes: as for B13
B16: 8B4-78M (Fab) (Fab, V domains shown)
VH: B1 VH
VL: B1 VL with H89M, Q90S, S92M, S93G
notes: as for B13
B17: 8B4-82 (Fab) (Fab, V domains shown)
VH: B1 VH
VL: B1 VL with H89A, Q90S, S92R, S93G
notes: as for B13
B18: 8B4-74C (Fab) (Fab, V domains shown)
VH: B1 VH
VL: B1 VL with H89M, Q90S, S92L, S93G
notes: as for B13
B19: 8B4-21C (Fab) (Fab, V domains shown)
VH: B1 VH
VL: B1 VL with H89K, Q90S, S92A, S93G
notes: as for B13

What follows are binders tested against T1, human IL-13Rα1 on normal human dermal … (assay: cell-based or functional assay).

inhibition of eotaxin release from NHDF cells upon stimulation with IL-13 (IC50) [µg/mL] | NHDF IL-13-induced STAT6 phosphorylation (EC50) [µg/mL] | Binder
~1 | – | B1
0.75 | – | B2
~0.1 | – | B3
– | ~2.9 | B4
1.31 | – | B5
0.1 | – | B6
0.17 | – | B7
– | 3.8 | B8
– | 7 | B9

What follows are binders tested against T2, IL-13Rα1 on whole blood cells or PBMCs … (assay: cell-based or functional assay).

IL-13-stimulated TARC release in whole blood or PBMCs (IC50) [µg/mL] | Binder
~2.6 | B4
2.5 | B8

Target: T1, human IL-13Rα1 on normal human dermal …
Assay: cell-based or functional assay
Remark: another data set of the same source

NHDF cells IL-13 Eotaxin release (IC50) [on average] [µg/mL] | Binder
1 | B4
9.7 | B8
3.5 | B9

These binders were tested against T3, hIL-13Rα1.ECR (N-terminal FLAG-tagged …) (assay: ELISA on plate-bound hIL-13Rα1.ECR).

Kd [nM] | Binder
0.267 | B4
0.087 | B8
0.36 | B9

Each binder was assayed against T3, hIL-13Rα1.ECR (N-terminal FLAG-tagged …) (assay: KINEXA kinetic exclusion assay, full-length IgG4).

Kd [nM] | Binder
0.68 | B1
0.051 | B10
0.038 | B11

The binders below were run against T3, hIL-13Rα1.ECR (N-terminal FLAG-tagged …) (assay: BIACORE SPR, chip-bound hIL-13Rα1 extracellular domain, Fab format).

Kd [nM] | Binder
2.15 | B12
0.085 | B13
0.25 | B14
0.085 | B15
0.049 | B16
0.073 | B17
0.045 | B18
0.17 | B19

Each binder was assayed against T3, hIL-13Rα1.ECR (N-terminal FLAG-tagged …) (assay: BIACORE SPR, hIL-13Rα1.ECR immobilized on CM5 chip, antibody as analyte, bivalent model).
Protocol: BIACORE-Based Studies. Human IL-13Rα1.ECR (40 μg/ml in 20 mM Sodium Acetate, pH 4.2) of Example 1 was immobilized to a sensorchip (CM5, Biosensor, Sweden) using standard NHS/EDC chemistry according to the manufacturer's instructions at a set immobilization value, for example, 1000RU. Ethanolamine (1.0 M) pH 8.0 was used to quench residual active esters post hIL-13Rα1.ECR immobilization.
Analysis of binding of antibody (concentration range of 1.4 nM to 150 nM, two-fold dilutions) to the immobilized hIL-13Rα1. ECR was performed in duplicate. Sensorgrams generated were fitted to a bivalent ligand binding model to simultaneously derive association (kₐ) and dissociation (kd) rates and used to determine binding affinity (KD, Biaevaluation software, BIACORE™, Sweden).

Kd [nM] | Binder
4.6 | B4
2.1 | B8
16.5 | B9

Source: US20090285799A1 (CSL, published 2009)
